The data set in a line: amyloid nucleation score (Sup35N fusion, yeast selection) (log enrichment); library NNK3; higher = more nucleation; inactive = no reads after selection. A digest of the protocol:
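Nucleation score is defined as the DiMSum log enrichment of output over input reads, with centring on the mode score of non-aggregating sequences. A minimum of 100 input reads was required for each sequence. Reads came from Illumina sequencing of plasmid inserts from psi-negative yeast expressing Sup35N fused to peptides of 20 random codons, induced with 100 μM copper sulfate for 24 hours and grown 7 days at 30°C on medium lacking adenine and uracil.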

± gives the uncertainty stated by the source.

In the case of CTSESVSYNMDRTKCQMYLT, the amyloid nucleation score result is “inactive”.

FLGGRTLTSLPE: the amyloid nucleation score entry was “inactive”.

Consider CSATRYFCRNLRRVCVNEYG, for which the amyloid nucleation score entry is “inactive”.

With QYAAMATGNLYLS, the amyloid nucleation score entry is “inactive”.

Consider GSTCSDLLALYPWYVRIKEI, for which the amyloid nucleation score entry was “inactive”.

The substance QSIARWTVLSFSWRTTSRKS registered an amyloid nucleation score of -0.416 ± 1.2.

As to CAYVENSCGTILVCALYCGS, the amyloid nucleation score entry is “inactive”.

Turning to VGESDKLHFAH, the amyloid nucleation score entry is “inactive”.

As to RGIANCPHLCIAYLMLS, the amyloid nucleation score entry is “inactive”.

Turning to GHIKWGNCSSYVSGFKLTCG, the amyloid nucleation score result was “inactive”.

With MVVLRAVEQLGVRNNDYHS, the amyloid nucleation score entry was “inactive”.

VSLGVNRGG: the amyloid nucleation score entry is “inactive”.

For SRFRGAI, the amyloid nucleation score entry is “inactive”.

As to FGRGCHRSMTIGDLVFLLIT, the amyloid nucleation score entry is “inactive”.

On to HYLYRNCNVAVTVRSLTV, for which the amyloid nucleation score entry is “inactive”.

Substance FIGMDIIKYLS had an amyloid nucleation score of 0.631 ± 0.16.

Turning to GSWTVLQNRHQAERVVSVYR, the amyloid nucleation score entry is “inactive”.

As for NSLFCTWSSPWVYNPTYGWE, the amyloid nucleation score was 1.26 ± 0.17.

CLSLLNFDVCVMRSVVRVFA: the amyloid nucleation score result is “inactive”.

For GSPQVSAAGQF, the amyloid nucleation score result is “inactive”.

Regarding YGMSTG, the amyloid nucleation score result was “inactive”.

Take KMGPILKCPR: the amyloid nucleation score result was “inactive”.

For YRDFDEDCVIL, the amyloid nucleation score entry was “inactive”.

As to FGSLPRQIMCMPA, the amyloid nucleation score entry was “inactive”.

On to TKSYPRTMFEPALALDMP, for which the amyloid nucleation score turned out to be 0.871 ± 0.26.

For the substance FFYNYSRSGLCYIIFSESPV, the amyloid nucleation score was found to be 1.33 ± 0.095.

As to DDCTTVF, the amyloid nucleation score result is “inactive”.

As for TELVLRAVSSLGVLVIFTTS, the amyloid nucleation score entry is “inactive”.

As to YMLLVSGFA, the amyloid nucleation score result was “inactive”.

In the case of ILPTAKKSKCGSHL, the amyloid nucleation score result is “inactive”.

Consider AWHCLDYYRSGSVIDRRVGM, for which the amyloid nucleation score entry was “inactive”.

On to VQKSMR, for which the amyloid nucleation score result was “inactive”.

On to ALFSKKFI, for which the amyloid nucleation score was 1.83 ± 0.059.

For the substance VLNSIGPYVMTKR, the amyloid nucleation score was 0.139 ± 0.63.

Take LGVGMQRYMSWRRK: the amyloid nucleation score stood at 0.504 ± 0.29.

Consider AHFFVCCALSDRCRLRDVLQ, for which the amyloid nucleation score entry is “inactive”.

Consider SLDCARNFRFGQTVFCCVGY, for which the amyloid nucleation score came out at 1.21 ± 0.18.

Take PQIVFRFDNIDQ: the amyloid nucleation score result is “inactive”.

GGSEGQSVPAC displayed an amyloid nucleation score of -0.241 ± 1.5.

With YLDYSFREFCRMNQ, the amyloid nucleation score result is “inactive”.

As to GVSYSLCLLIGLNRIRMGMV, the amyloid nucleation score entry was “inactive”.

As for IESVRKHGGCTAFVSSWYVM, the amyloid nucleation score entry is “inactive”.

For the substance ESRKWAAEGPSFICTCLLSL, the amyloid nucleation score result was “inactive”.

Turning to TGVFDFRRVVLLVSHSEV, the amyloid nucleation score entry is “inactive”.

In turn, ASLRWVLRLCRNLHTSSMET yielded an amyloid nucleation score of -0.824 ± 1.5.

As to SFTRCWLNKREMKMYTFSAR, the amyloid nucleation score result is “inactive”.

For WNPFGRGWLTLPNMFHKTVI, the amyloid nucleation score result was “inactive”.

In the case of LTFCVSMKCKIW, the amyloid nucleation score result was “inactive”.

Take VEFIEFMYDPSYYVSNQNST: the amyloid nucleation score entry was “inactive”.

Take TFDSYPFVKGGISWPNMKYL: the amyloid nucleation score result is “inactive”.

As to IVYILRFRTSMLC, the amyloid nucleation score entry is “inactive”.

As for SRTYKHKALAQFPYKYWCVP, the amyloid nucleation score entry is “inactive”.

As to CNKSFRLYEMM, the amyloid nucleation score entry was “inactive”.

Turning to PDRLFLDTGSTWFKYMMSCL, the amyloid nucleation score is -1.12 ± 1.4.

In the case of KGTMVQTVKSVWLGEHIVLA, the amyloid nucleation score entry is “inactive”.

In the case of NIALFEILSSGIIVSNSNER, the amyloid nucleation score entry is “inactive”.

In the case of CQTGRYRESALSVLARKLNA, the amyloid nucleation score result was “inactive”.

Substance HYTVDANNIVFYILH had an amyloid nucleation score of 3.11 ± 0.076.

Regarding LTSSEQDAITLTTCGISECA, the amyloid nucleation score result is “inactive”.

Consider FWCIGEIRCTYMWRSQCFCV, for which the amyloid nucleation score entry is “inactive”.

Consider WGMTNSETGLVGWSLSKLLG, for which the amyloid nucleation score entry was “inactive”.

As for IRGASYPSATNRHAAMLVWM, the amyloid nucleation score result was “inactive”.

For SIWEHRSNS, the amyloid nucleation score result was “inactive”.

IDCLFRLAGYWSALWTFVLF: the amyloid nucleation score result is “inactive”.

For the substance ARIDCGSVELKECDLRPDYG, the amyloid nucleation score result is “inactive”.

On to DINCSWTLQNGRGTLSE, for which the amyloid nucleation score entry was “inactive”.

With PYYRRMPVDSARRTSKSK, the amyloid nucleation score result was “inactive”.

For LAVFSEARNEGTTQFYYLLK, the amyloid nucleation score result was “inactive”.

In turn, LNRVRSS displayed an amyloid nucleation score of -0.108 ± 0.7.

Regarding SYGVGWVYTEFGNLLRSFGL, the amyloid nucleation score entry was “inactive”.

Regarding SDLMRKKMDGMDRNEGCPIR, the amyloid nucleation score entry was “inactive”.

As to HKRLGPLHYRLICG, the amyloid nucleation score entry is “inactive”.

On to YLVVHW, for which the amyloid nucleation score entry was “inactive”.

EFPRGLGSR displayed an amyloid nucleation score of -0.236 ± 1.

LLECNRTMPQLMVWEVFCSV: the amyloid nucleation score result is “inactive”.

Consider YYTWVCECSYWHSVFM, for which the amyloid nucleation score result was “inactive”.

Consider EHFRGRVLVRCLL, for which the amyloid nucleation score result was “inactive”.

As for RLRSNDSDLNRIAAIKVRGI, the amyloid nucleation score result was “inactive”.

GNIAELVSGREVYNYVN gave an amyloid nucleation score of -0.075 ± 0.9.

For YLSGSDIGFGYERCKIDSGV, the amyloid nucleation score entry was “inactive”.

ERNFPGLFIQLVHLQPEARM gave an amyloid nucleation score of 0.631 ± 0.34.

With RISLDNTWGFL, the amyloid nucleation score entry was “inactive”.

In the case of VMSGAKPARSLFLSTLQHIS, the amyloid nucleation score result is “inactive”.

Take HLWHSVWYALRDSPSLGFFI: the amyloid nucleation score entry is “inactive”.

As to VDLYV, the amyloid nucleation score entry was “inactive”.

Regarding RILLNANRYTMPSGVYDHRA, the amyloid nucleation score entry is “inactive”.

Turning to VEDWATILSYY, the amyloid nucleation score result was “inactive”.

Regarding VCSFDMRDLQKTE, the amyloid nucleation score result was “inactive”.

As to YLSINTAEYHFQEQVLVFVY, the amyloid nucleation score entry is “inactive”.

Turning to TDKFWLIGDSTTSWIEVVFN, the amyloid nucleation score entry is “inactive”.

With SRSNQNCLPSASMNVYLSVT, the amyloid nucleation score entry was “inactive”.

As for GIGRDCNVSGALCQRAVANV, the amyloid nucleation score result is “inactive”.

Turning to ILGFLCPLFSFFFSGGYFLG, the amyloid nucleation score result was “inactive”.

On to DGMSMCRQLLKGVQKPDYLL, for which the amyloid nucleation score entry was “inactive”.

Take MLREMY: the amyloid nucleation score result was “inactive”.

Consider GIYRYVQGWHDAPHGGNCTE, for which the amyloid nucleation score result was “inactive”.

With TKCLRVVKRTTYGSQEFLRK, the amyloid nucleation score entry was “inactive”.

Regarding LSYGFLGDRYVLHGCLMYFP, the amyloid nucleation score result is “inactive”.

On to VFEVEPNLGIGYSAKACNVG, for which the amyloid nucleation score result is “inactive”.

For SSIHH, the amyloid nucleation score entry is “inactive”.

For the substance IFYFHQFNCMPGLAFTSVIG, the amyloid nucleation score result is “inactive”.

Take GWNSRM: the amyloid nucleation score result is “inactive”.

For VARELGLCYVWAGSRGVSRV, the amyloid nucleation score is -0.323 ± 1.8.

Turning to KGGWEADLYYVVCLVIISIW, the amyloid nucleation score entry was “inactive”.

CISSGGMLLNSFGSLWA: the amyloid nucleation score entry is “inactive”.

For YLLVLMVERF, the amyloid nucleation score entry was “inactive”.

On to GGCGMDV, for which the amyloid nucleation score result is “inactive”.

Regarding QWTSFLVLCCTNPRLGSSRV, the amyloid nucleation score turned out to be 2.67 ± 0.073.

The substance FSLTLCWHWSWVQCAGVPWG displayed an amyloid nucleation score of 2.05 ± 0.097.

For the substance KRFTGSK, the amyloid nucleation score result is “inactive”.

Substance MRNGCCNACKILLDIRLFL showed an amyloid nucleation score of 1.96 ± 0.059.

In the case of CISQVVVGSTHTAIGARAFA, the amyloid nucleation score entry is “inactive”.

For CVTYSYCYCQANHFHCRCQQ, the amyloid nucleation score turned out to be 2.88 ± 0.062.

Consider SISYINRKHTRNDTPRLRGV, for which the amyloid nucleation score result is “inactive”.

Take MVNMTI: the amyloid nucleation score result is “inactive”.

As to VGKLLVGTWWHGSYRSMSKR, the amyloid nucleation score entry was “inactive”.

As to GSYRLLY, the amyloid nucleation score result was “inactive”.

Take RLPLPL: the amyloid nucleation score result was “inactive”.

On to SDYLRMVVTYPQTLLYQGTK, for which the amyloid nucleation score result was “inactive”.

For the substance EIRRCTPCLLWVLLLFAINR, the amyloid nucleation score entry was “inactive”.

Consider TLYVFWCEQFKRAYWLYVSK, for which the amyloid nucleation score result was “inactive”.

CVVTGMMYTVFDKAFCFNAS registered an amyloid nucleation score of 1.89 ± 0.11.

Substance NMLVCITSDGLYFYCCGANS showed an amyloid nucleation score of 1.5 ± 0.11.

For the substance TNTNLMYGSGYLLLNGMQCN, the amyloid nucleation score result was “inactive”.

Take TLIHGGFTYLDQWKDETCPQ: the amyloid nucleation score result was “inactive”.

As to ILPPNWATSRVNAAGWFLGQ, the amyloid nucleation score result was “inactive”.

On to QLAKG, for which the amyloid nucleation score result is “inactive”.

Regarding LVDLSRSISKSPMQKYRF, the amyloid nucleation score entry was “inactive”.

Regarding CRRVMVILMH, the amyloid nucleation score result is “inactive”.

Turning to RTRTCRYFLIVYSVVCLMSI, the amyloid nucleation score result was “inactive”.

For GLKLCCV, the amyloid nucleation score result was “inactive”.

As to KMGTRGWLSDIAGNMVYVLC, the amyloid nucleation score entry was “inactive”.

For the origin of these results see the supplement of paper PMC12042874.
